Source: patent US20190375815A1 (Novartis, published 2019)

Target: T1, CD22-Fc (UniProt P20273 20-687, limits assumed)
T1 construct: Soluble staining reagent, detected with an anti-Fc secondary antibody; not shown: Fc part
T1 sequence (looked up): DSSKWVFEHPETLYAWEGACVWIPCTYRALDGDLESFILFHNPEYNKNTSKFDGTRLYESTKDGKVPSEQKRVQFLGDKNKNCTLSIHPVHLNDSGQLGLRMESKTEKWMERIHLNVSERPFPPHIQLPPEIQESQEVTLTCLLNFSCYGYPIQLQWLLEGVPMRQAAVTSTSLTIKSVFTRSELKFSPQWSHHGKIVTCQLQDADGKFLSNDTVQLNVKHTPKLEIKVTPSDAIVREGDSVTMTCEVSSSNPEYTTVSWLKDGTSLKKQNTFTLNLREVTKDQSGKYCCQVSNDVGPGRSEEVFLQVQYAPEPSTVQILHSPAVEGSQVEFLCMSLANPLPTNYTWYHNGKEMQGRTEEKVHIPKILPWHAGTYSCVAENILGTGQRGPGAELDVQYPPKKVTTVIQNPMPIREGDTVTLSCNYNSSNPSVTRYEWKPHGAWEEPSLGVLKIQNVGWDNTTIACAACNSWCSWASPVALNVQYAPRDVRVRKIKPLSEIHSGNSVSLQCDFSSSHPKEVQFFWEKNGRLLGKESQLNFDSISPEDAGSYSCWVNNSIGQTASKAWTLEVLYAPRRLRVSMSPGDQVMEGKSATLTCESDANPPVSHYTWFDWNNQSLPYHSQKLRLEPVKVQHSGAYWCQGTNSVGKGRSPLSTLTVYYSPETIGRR
Experiment: flow cytometry of transduced JNL cells stained with CD22-Fc and anti-Fc secondary antibody
From the text: The Jurkat NFAT Luciferase (JNL) reporter cell line is based on the acute T cell leukemia line Jurkat. The line was modified to express luciferase under control of the Nuclear Factor of Activated T cells (NFAT) response element. For the transduction with TCARs, 400,000 JNL cells/well of a 12-well plate were transduced with a multiplicity of infection (MOI) of 1.5. Frozen virus-containing supernatant was thawed at room temperature and added to the respective wells. One well each was transduced with CD19-TCAR, CD22-TCAR, or CD19-TCAR plus CD22-TCAR (“CD19/22 dual TCAR”) at MOI=1.5 each. The plates were cultured for 6 days.
TCAR-expressing T cells were tested for their target binding capability by flow cytometry. Non-transduced (UTD), CD19-TCAR, CD22-TCAR and CD19/22 dual TCAR expressing JNL cells were tested: cells were stained with CD22-Fc for 30 min at 4° C. After a wash, cells were stained with anti-Fc secondary antibody for 30 min at 4° C. After a second wash, cells were stained with CD19-CAR anti-idiotype antibody (Ab) for 30 min at 4° C. Cells were then analyzed on a FACS LSR Fortessa after a last wash. Data was analyzed using FlowJo software. […] CD22-TCAR expressing cells bound CD22-Fc but were not stained with the CD19-CAR anti-idiotype Ab (FIG. 47C).

B1: CD19scFv-G4S-CD3gECDTM-41BB (other)
chain: EIVMTQSPATLSLSPGERATLSCRASQDISKYLNWYQQKPGQAPRLLIYHTSRLHSGIPARFSGSGSGTDYTLTISSLQPEDFAVYFCQQGNTLPYTFGQGTKLEIKGGGGSGGGGSGGGGSQVQLQESGPGLVKPSETLSLTCTVSGVSLPDYGVSWIRQPPGKGLEWIGVIWGSETTYYSSSLKSRVTISKDNSKNQVSLKLSSVTAADTAVYYCAKHYYYGGSYAMDYWGQGTLVTVSSGGGGSQSIKGNHLVKVYDYQEDGSVLLTCDAEAKNITWFKDGKMIGFLTEDKKKWNLGSNAKDPRGMYQCKGSQNKSKPLQVYYRMCQNCIELNAATISGFLFAEIVSIFVLAVGVYFIAKRGRKKLLYIFKQPFMRPVQTTQEEDGCSCRFPEEEEGGCEL
notes: Chimeric membrane protein: CD19 scFv, G4S linker, CD3 gamma extracellular and transmembrane domains, 4-1BB; Expressed on JNL (Jurkat NFAT luciferase) cells by lentiviral transduction, alone or together with the CD22 TCAR (CD19/22 dual TCAR cells); also called CD19-TCAR; CD19 TCAR
binding result: no binding
